Laboratory results taken from patent US20250352667A1.
Numbering of substitutions follows the chain as printed. Numbers in names are those of the source.

Tests used:
[1] = target: KEAP1 (wild-type full-length), His-tagged (human) (UniProt Q14145); assay: AlphaScreen; FLAG-NRF2 wt isoform 1 19.2 nM, His-KEAP1 150 nM; Repeat 2; positive control for Q75R
[2] = target: KEAP1 (wild-type full-length), His-tagged (human) (UniProt Q14145); assay: AlphaScreen; 1228.8 nM FLAG-NRF2, 150 nM His-KEAP1; Rep 3; control for I86V
[3] = target: KEAP1 (wild-type full-length), His-tagged (human) (UniProt Q14145); assay: AlphaScreen; 153.6 nM FLAG-NRF2, 150 nM His-KEAP1; Rep 2; control for I28V
[4] = target: KEAP1 (wild-type full-length), His-tagged (human) (UniProt Q14145); assay: AlphaScreen; 2.4 nM FLAG-NRF2, 150 nM His-KEAP1; Rep 1; control for I86V
[5] = target: KEAP1 (wild-type full-length), His-tagged (human) (UniProt Q14145); assay: AlphaScreen; 2.4 nM FLAG-NRF2, 150 nM His-KEAP1; Rep 2; control for I86V
[6] = target: KEAP1 (wild-type full-length), His-tagged (human) (UniProt Q14145); assay: AlphaScreen; 307.2 nM FLAG-NRF2, 150 nM His-KEAP1; Rep 2; control for I28V
[7] = target: KEAP1 (wild-type full-length), His-tagged (human) (UniProt Q14145); assay: AlphaScreen; 38.4 nM FLAG-NRF2, 150 nM His-KEAP1; Rep 1; control for I86V
[8] = target: KEAP1 (wild-type full-length), His-tagged (human) (UniProt Q14145); assay: AlphaScreen; 307.2 nM FLAG-NRF2, 150 nM His-KEAP1; Rep 3; control for I86V
[9] = target: KEAP1 (wild-type full-length), His-tagged (human) (UniProt Q14145); assay: AlphaScreen; 19.2 nM FLAG-NRF2, 150 nM His-KEAP1; Rep 3; control for I86V
[10] = target: KEAP1 (wild-type full-length), His-tagged (human) (UniProt Q14145); assay: AlphaScreen; NRF2 wt isoform 1 19.2 nM, KEAP1 150 nM; set as the 100 % reference for I86V
[11] = target: KEAP1 (wild-type full-length), His-tagged (human) (UniProt Q14145); assay: AlphaScreen; FLAG-NRF2 wt isoform 1 19.2 nM, His-KEAP1 150 nM; Rep 1; positive control for Q75R
[12] = target: KEAP1 (wild-type full-length), His-tagged (human) (UniProt Q14145); assay: AlphaScreen; 307.2 nM FLAG-NRF2, 150 nM His-KEAP1; Rep 1; control for I86V
[13] = target: KEAP1 (wild-type full-length), His-tagged (human) (UniProt Q14145); assay: AlphaScreen; 153.6 nM FLAG-NRF2, 150 nM His-KEAP1; Rep 1; control for I86V
[14] = target: KEAP1 (wild-type full-length), His-tagged (human) (UniProt Q14145); assay: AlphaScreen; 19.2 nM FLAG-NRF2, 150 nM His-KEAP1; wild type set to 100%
[15] = target: KEAP1 (wild-type full-length), His-tagged (human) (UniProt Q14145); assay: AlphaScreen; FLAG-NRF2 I86V 19.2 nM, His-KEAP1 150 nM; Rep 2
[16] = target: KEAP1 (wild-type full-length), His-tagged (human) (UniProt Q14145); assay: AlphaScreen; FLAG-NRF2 I86V 1228.8 nM, His-KEAP1 150 nM; Rep 1
[17] = target: KEAP1 (wild-type full-length), His-tagged (human) (UniProt Q14145); assay: AlphaScreen; NRF2 I86V 9.6 nM, KEAP1 150 nM; relative to wild-type NRF2 isoform 1 (100 %)
[18] = target: KEAP1 (wild-type full-length), His-tagged (human) (UniProt Q14145); assay: AlphaScreen; 9.6 nM FLAG-NRF2, 150 nM His-KEAP1 (same value as in Table 27)
[19] = target: KEAP1 (wild-type full-length), His-tagged (human) (UniProt Q14145); assay: AlphaScreen; 38.4 nM FLAG-NRF2, 150 nM His-KEAP1; Rep 2
[20] = target: KEAP1 (wild-type full-length), His-tagged (human) (UniProt Q14145); assay: AlphaScreen; 1228.8 nM FLAG-NRF2, 150 nM His-KEAP1; signal against NRF2 only
[21] = target: KEAP1 (wild-type full-length), His-tagged (human) (UniProt Q14145); assay: AlphaScreen; 38.4 nM FLAG-NRF2, 150 nM His-KEAP1; Repeat 1 (same value as in Table 27)
[22] = target: KEAP1 (wild-type full-length), His-tagged (human) (UniProt Q14145); assay: AlphaScreen; 153.6 nM FLAG-NRF2, 150 nM His-KEAP1; Rep 1
[23] = target: KEAP1 (wild-type full-length), His-tagged (human) (UniProt Q14145); assay: AlphaScreen; FLAG-NRF2 Q75R 38.4 nM, His-KEAP1 150 nM; Repeat 1
[24] = target: KEAP1 (wild-type full-length), His-tagged (human) (UniProt Q14145); assay: AlphaScreen; FLAG-NRF2 Q75R 38.4 nM, His-KEAP1 150 nM; Rep 1
[25] = target: KEAP1 (wild-type full-length), His-tagged (human) (UniProt Q14145); assay: AlphaScreen; FLAG-NRF2 Q75R 4.8 nM, His-KEAP1 150 nM; Rep 2
[26] = target: KEAP1 (wild-type full-length), His-tagged (human) (UniProt Q14145); assay: AlphaScreen; FLAG-NRF2 Q75R 76.8 nM, His-KEAP1 150 nM; Rep 2
[27] = target: KEAP1 (wild-type full-length), His-tagged (human) (UniProt Q14145); assay: AlphaScreen; mean over 9.6, 19.2 and 38.4 nM NRF2 Q75R, KEAP1 150 nM; relative to wild-type NRF2 isoform 1

Sequence of KEAP1 (wild-type full-length), His-tagged (human) (Q14145 2-624 limits assumed): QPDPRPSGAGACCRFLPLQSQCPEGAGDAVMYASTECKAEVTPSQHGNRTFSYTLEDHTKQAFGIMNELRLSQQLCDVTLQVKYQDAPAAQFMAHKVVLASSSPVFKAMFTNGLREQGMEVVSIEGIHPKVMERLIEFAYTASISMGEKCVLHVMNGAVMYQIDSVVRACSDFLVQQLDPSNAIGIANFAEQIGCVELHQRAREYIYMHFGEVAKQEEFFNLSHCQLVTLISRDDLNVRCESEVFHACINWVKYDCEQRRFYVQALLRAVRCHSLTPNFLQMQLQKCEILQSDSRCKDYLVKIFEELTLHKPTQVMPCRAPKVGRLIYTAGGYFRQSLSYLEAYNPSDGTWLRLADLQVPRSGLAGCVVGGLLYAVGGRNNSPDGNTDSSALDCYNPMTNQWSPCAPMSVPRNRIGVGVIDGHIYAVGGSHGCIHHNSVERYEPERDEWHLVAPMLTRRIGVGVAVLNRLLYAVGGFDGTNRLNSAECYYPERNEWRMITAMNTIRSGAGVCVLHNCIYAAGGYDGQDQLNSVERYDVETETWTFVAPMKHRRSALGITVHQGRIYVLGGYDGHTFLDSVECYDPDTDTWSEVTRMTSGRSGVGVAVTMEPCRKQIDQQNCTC

B1: NRF2 isoform 1 (wild-type full-length), FLAG-tagged (protein)
chain: MMDLELPPPGLPSQQDMDLIDILWRQDIDLGVSREVFDFSQRRKEYELEKQKKLEKERQEQLQKEQEKAFFAQLQLDEETGEFLPIQPAQHIQSETSGSANYSQVAHIPKSDALYFDDCMQLLAQTFPFVDDNEVSSATFQSLVPDIPGHIESPVFIATNQAQSPETSVAQVAPVDLDGMQQDIEQVWEELLSIPELQCLNIENDKLVETTMVPSPEAKLTEVDNYHFYSSIPSMEKEVGNCSPHFLNAFEDSFSSILSTEDPNQLTVNSLNSDATVNTDFGDEFYSAFIAEPSISNSMPSPATLSHSLSELLNGPIDVSDLSLCKAFNQNHPESTAEFNDSDSGISLNTSPSVASPEHSVESSSYGDTLLGLSDSEVEELDSAPGSVKQNGPKTPVHSSGDMVQPLSPSQGQSTHVHDAQCENTPEKELPVSPGHRKTPFTKDKHSSRLEAHLTRDELRAKALHIPFPVEKIINLPVVDFNEMMSKEQFNEAQLALIRDIRRRGKNKVAAQNCRKRKLENIVELEQDLDHLKDEKEKLLKEKGENDKSLHLLKKQLSTLYLEVFSMLRDEDGKPYSPSEYSLQQTRDGNVFLVPKSKKPDVKKN
[1]
  A-counts (NRF2 plus KEAP1): 1480 A-counts
[2]
  A-counts: 2610 A-counts
[3]
  A-counts: 1880 A-counts
[4]
  A-counts: 860 A-counts
[5]
  A-counts: 959 A-counts
[6]
  A-counts: 1780 A-counts
[7]
  A-counts: 3100 A-counts
[8]
  A-counts: 2910 A-counts
[9]
  A-counts: 3040 A-counts
[10]
  Binding Percentage: 100%
[11]
  A-counts (NRF2 plus KEAP1): 1360 A-counts
[12]
  A-counts: 2640 A-counts
[13]
  A-counts: 3060 A-counts
[14]
  Binding Percentage (%): 100%

B2: NRF2 isoform 1 (I86V full-length), FLAG-tagged (protein)
chain: B1 chain with I86V
[15]
  A-counts (NRF2 plus KEAP1): 3160 A-counts
[16]
  A-counts (NRF2 plus KEAP1): 1750 A-counts
[17]
  Binding Percentage: 99.1%

B3: NRF2 isoform 1 (I28V full-length), FLAG-tagged (protein)
chain: B1 chain with I28V
[18]
  S/N: 3.4
[19]
  A-counts: 1680 A-counts
[20]
  S/N: 0.9
[21]
  A-counts: 1690 A-counts
[22]
  A-counts: 1400 A-counts

B4: NRF2 isoform 1 (Q75R full-length), FLAG-tagged (protein)
chain: B1 chain with Q75R
[23]
  A-counts (NRF2 plus KEAP1): 1200 A-counts
[24]
  A-counts (NRF2 plus KEAP1): 1200 A-counts
[25]
  A-counts (NRF2 plus KEAP1): 819 A-counts
[26]
  A-counts (NRF2 plus KEAP1): 1150 A-counts
[27]
  Average Binding: 69.8%
  Avg. Reduction in Binding: 30.2%
